Reference: article doi:10.1101/2023.04.26.538370

Experiments:
[1] = target: microtubules (MTs) of cultured rat hippocampal neurons (rat (endogenous in hippocampal neurons)) (UniProt P68370); test: FRAP fitted with a reaction-diffusion simulation
[2] = target: microtubules (MTs) of cultured rat hippocampal neurons (rat (endogenous in hippocampal neurons)) (UniProt P68370); test: FRAP fitted with a reaction-diffusion-advection simulation
[3] = target: microtubules (MTs) of cultured rat hippocampal neurons (rat (endogenous in hippocampal neurons)) (UniProt P68370); test: FRAP fitted with a reaction-diffusion simulation; remark: listed apart in the source

Kd [1] | Kd [2] | Kd [3] | Substance
1 µM | 3 µM | 4.5 µM | GFP-MAP2C, wild type (pAcGFP-His-MAP2C), expressed in cultured rat hippocampal neurons (from UniProt P11137-2 1-471) (natural protein)
– | – | 1 µM | GFP-MAP2B expressed in cultured rat hippocampal neurons (from UniProt P11137-1 1-1827) (natural protein)
